Results published in the supplement of paper PMC10065799, “High-throughput profiling of sequence recognition by tyrosine kinases and SH2 domains using bacterial peptide display” (eLife, 2023).

Molecular target: Hck (UniProt P08631)
Experiment: phosphorylation enrichment, bacterial display (enrichment ratio); higher = better substrate or ligand; peptides without Tyr show the background
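Also: 11-residue human phosphosite peptides and single-mutation variants displayed on the E. coli surface, counted by deep sequencing, each peptide's frequency after selection divided by its frequency in the unselected input library; frequency after pTyr selection over input frequency; kinase dosed for 20-30% of maximal phosphorylation in three min.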

Sequence of Hck (P08631 whole entry, looked up): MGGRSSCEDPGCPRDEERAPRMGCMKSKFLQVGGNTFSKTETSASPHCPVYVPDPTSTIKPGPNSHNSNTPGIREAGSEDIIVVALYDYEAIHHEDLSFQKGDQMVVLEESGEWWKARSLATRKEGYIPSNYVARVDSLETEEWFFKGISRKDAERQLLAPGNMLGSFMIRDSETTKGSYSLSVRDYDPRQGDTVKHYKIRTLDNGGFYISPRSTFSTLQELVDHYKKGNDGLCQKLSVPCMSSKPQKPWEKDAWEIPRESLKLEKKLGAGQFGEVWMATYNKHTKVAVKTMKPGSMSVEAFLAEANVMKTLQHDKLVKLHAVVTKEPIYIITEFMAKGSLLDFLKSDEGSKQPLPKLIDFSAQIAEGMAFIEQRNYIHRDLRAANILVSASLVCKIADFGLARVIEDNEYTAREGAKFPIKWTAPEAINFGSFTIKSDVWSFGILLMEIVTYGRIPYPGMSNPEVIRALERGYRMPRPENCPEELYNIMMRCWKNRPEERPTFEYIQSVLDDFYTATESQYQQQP

Point of comparison: FSCLPYRRLAY [SLC52A2_Y305_G306R], phosphorylation enrichment 0.663. Against it:
- GKMSQYLESMQ [CYB5R3_Y130] — lower, 0.494
- QWRTKYETDTI [MYH7_Y1375_A1379T] — lower, 0.624
- KILAKYLLETS [NAMPT_Y175] — lower, 0.368
- IVRSRYEDLED [VHL_Y185_L184R] — lower, 0.651
- DRLTVYIDRVR [LMNA_Y45_A43T] — lower, 0.458
- CHKRTYKVTGL — lower, 0.401
- ENFSEYQEIAV [HEMGN_Y150] — higher, 0.984
- DRLASYPEKVR [KRT13_Y118_L119P] — lower, 0.329
- AVLSLYASGCT [ACTA2_Y145_R149C] — lower, 0.634
- NLNGKYFKPRA [ANGPTL3_Y417_N418Y_YF] — lower, 0.367
- GDFSRYDEGSG [RECQL5_Y484] — lower, 0.494
- AHEALYLEADL [CENPF_Y1920_E1915A] — higher, 0.736
- EVASVYESYQP [MAVS_Y92_Q93E] — higher, 6.67
- RFVTRSIFNRE [HLA-DQB1_Y62_Y62S_YF] — lower, 0.632
- SVTCTHSPALN [TP53_Y126_Y126H] — lower, 0.529
- PLFSKYWPNHI [GREB1L_Y1560_R1558S_YF] — higher, 0.801
- LLKAKYELLNA [POLR3A_Y714] — lower, 0.496
- SNMPTYSGHFS [GRIN2A_Y1224_T1229S] — higher, 1.48
- TTSQLYDAMPI [PDPK1_Y9_V12M] — higher, 8.57
- GIVEDYRPPFY [ACVRL1_Y421] — lower, 0.427
- QRKRAYVEIEY [MAK16_Y282] — higher, 0.672
- SGLDSYVRSLP [TRAPPC1_Y133_R129G] — lower, 0.438
- VDDEIYYFRKP [PBRM1_Y1289] — higher, 8.76
- PLLEFYWDIFT [CDAN1_Y713_R714W_YF] — lower, 0.458
- PVDVAYRRGYF [PLEC_Y2967] — lower, 0.587
- THEVRYVSAGQ [SLCO4A1_Y77] — lower, 0.374
- SDPIVYTLENI [EMR1_Y534_I533V] — higher, 0.676
- KFRREYILSLE [GPC3_Y299_W296R_YF] — lower, 0.474
- EICTQYEAMAS [GFAP_Y242_R239C] — higher, 0.708
- EFTAGYNVKFD [GPX4_Y123_A120T] — lower, 0.435
- SSYDTYHLSRE [KIR3DL2_Y253_I252T] — higher, 4.59
- SIGLGYHKDLQ [NF1_Y1169] — lower, 0.424

Molecular target: Jak2 (UniProt O60674)
Experiment: as above

Sequence of Jak2 (O60674 whole entry, looked up): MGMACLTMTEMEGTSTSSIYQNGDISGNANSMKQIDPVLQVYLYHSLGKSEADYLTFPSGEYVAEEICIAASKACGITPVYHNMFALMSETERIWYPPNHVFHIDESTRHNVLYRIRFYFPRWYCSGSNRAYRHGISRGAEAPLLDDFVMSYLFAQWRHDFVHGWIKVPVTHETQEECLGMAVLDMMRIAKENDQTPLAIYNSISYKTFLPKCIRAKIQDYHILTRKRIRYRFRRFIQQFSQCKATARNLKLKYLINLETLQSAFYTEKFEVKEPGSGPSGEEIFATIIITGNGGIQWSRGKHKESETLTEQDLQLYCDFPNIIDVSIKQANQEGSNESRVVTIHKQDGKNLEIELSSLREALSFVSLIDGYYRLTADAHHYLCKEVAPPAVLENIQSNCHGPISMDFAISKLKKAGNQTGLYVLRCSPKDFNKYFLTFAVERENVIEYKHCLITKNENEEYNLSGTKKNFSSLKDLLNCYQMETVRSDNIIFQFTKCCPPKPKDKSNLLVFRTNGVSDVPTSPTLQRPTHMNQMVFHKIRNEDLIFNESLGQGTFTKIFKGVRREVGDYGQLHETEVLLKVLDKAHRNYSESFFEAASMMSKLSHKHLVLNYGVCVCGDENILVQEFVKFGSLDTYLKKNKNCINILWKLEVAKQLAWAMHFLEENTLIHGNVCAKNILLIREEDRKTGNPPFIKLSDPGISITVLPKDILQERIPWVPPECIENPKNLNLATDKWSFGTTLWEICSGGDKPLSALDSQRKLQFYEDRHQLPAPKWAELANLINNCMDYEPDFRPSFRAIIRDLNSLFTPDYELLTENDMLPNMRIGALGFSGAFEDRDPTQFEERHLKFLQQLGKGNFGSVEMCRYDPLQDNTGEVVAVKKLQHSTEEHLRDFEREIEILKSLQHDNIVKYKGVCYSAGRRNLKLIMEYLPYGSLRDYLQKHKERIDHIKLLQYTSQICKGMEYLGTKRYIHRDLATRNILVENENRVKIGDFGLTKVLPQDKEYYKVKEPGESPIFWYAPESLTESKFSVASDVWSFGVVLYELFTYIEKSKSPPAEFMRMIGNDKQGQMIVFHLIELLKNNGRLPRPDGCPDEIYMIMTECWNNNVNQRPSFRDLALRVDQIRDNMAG

Point of comparison: QRKRAYVEIEY [MAK16_Y282], phosphorylation enrichment 0.73. Against it:
- GKMSQYLESMQ [CYB5R3_Y130] — lower, 0.539
- QWRTKYETDTI [MYH7_Y1375_A1379T] — higher, 1.56
- KILAKYLLETS [NAMPT_Y175] — lower, 0.645
- IVRSRYEDLED [VHL_Y185_L184R] — higher, 0.964
- DRLTVYIDRVR [LMNA_Y45_A43T] — higher, 1.15
- CHKRTYKVTGL — lower, 0.657
- ENFSEYQEIAV [HEMGN_Y150] — higher, 1.28
- DRLASYPEKVR [KRT13_Y118_L119P] — lower, 0.403
- AVLSLYASGCT [ACTA2_Y145_R149C] — higher, 1.2
- NLNGKYFKPRA [ANGPTL3_Y417_N418Y_YF] — lower, 0.543
- GDFSRYDEGSG [RECQL5_Y484] — higher, 0.905
- AHEALYLEADL [CENPF_Y1920_E1915A] — higher, 1.05
- EVASVYESYQP [MAVS_Y92_Q93E] — higher, 0.849
- RFVTRSIFNRE [HLA-DQB1_Y62_Y62S_YF] — lower, 0.723
- SVTCTHSPALN [TP53_Y126_Y126H] — higher, 0.759
- PLFSKYWPNHI [GREB1L_Y1560_R1558S_YF] — higher, 0.933
- LLKAKYELLNA [POLR3A_Y714] — lower, 0.707
- SNMPTYSGHFS [GRIN2A_Y1224_T1229S] — lower, 0.662
- TTSQLYDAMPI [PDPK1_Y9_V12M] — lower, 0.665
- GIVEDYRPPFY [ACVRL1_Y421] — higher, 0.831
- SGLDSYVRSLP [TRAPPC1_Y133_R129G] — lower, 0.443
- VDDEIYYFRKP [PBRM1_Y1289] — higher, 1.35
- PLLEFYWDIFT [CDAN1_Y713_R714W_YF] — higher, 1.17
- PVDVAYRRGYF [PLEC_Y2967] — lower, 0.556
- THEVRYVSAGQ [SLCO4A1_Y77] — lower, 0.632
- SDPIVYTLENI [EMR1_Y534_I533V] — higher, 1.2
- KFRREYILSLE [GPC3_Y299_W296R_YF] — lower, 0.61
- EICTQYEAMAS [GFAP_Y242_R239C] — higher, 0.777
- EFTAGYNVKFD [GPX4_Y123_A120T] — higher, 0.9
- SSYDTYHLSRE [KIR3DL2_Y253_I252T] — lower, 0.527
- SIGLGYHKDLQ [NF1_Y1169] — lower, 0.548
- FSCLPYRRLAY [SLC52A2_Y305_G306R] — higher, 0.837

Molecular target: MERTK (UniProt Q12866)
Experiment: as above

Sequence of MERTK (Q12866 whole entry, looked up): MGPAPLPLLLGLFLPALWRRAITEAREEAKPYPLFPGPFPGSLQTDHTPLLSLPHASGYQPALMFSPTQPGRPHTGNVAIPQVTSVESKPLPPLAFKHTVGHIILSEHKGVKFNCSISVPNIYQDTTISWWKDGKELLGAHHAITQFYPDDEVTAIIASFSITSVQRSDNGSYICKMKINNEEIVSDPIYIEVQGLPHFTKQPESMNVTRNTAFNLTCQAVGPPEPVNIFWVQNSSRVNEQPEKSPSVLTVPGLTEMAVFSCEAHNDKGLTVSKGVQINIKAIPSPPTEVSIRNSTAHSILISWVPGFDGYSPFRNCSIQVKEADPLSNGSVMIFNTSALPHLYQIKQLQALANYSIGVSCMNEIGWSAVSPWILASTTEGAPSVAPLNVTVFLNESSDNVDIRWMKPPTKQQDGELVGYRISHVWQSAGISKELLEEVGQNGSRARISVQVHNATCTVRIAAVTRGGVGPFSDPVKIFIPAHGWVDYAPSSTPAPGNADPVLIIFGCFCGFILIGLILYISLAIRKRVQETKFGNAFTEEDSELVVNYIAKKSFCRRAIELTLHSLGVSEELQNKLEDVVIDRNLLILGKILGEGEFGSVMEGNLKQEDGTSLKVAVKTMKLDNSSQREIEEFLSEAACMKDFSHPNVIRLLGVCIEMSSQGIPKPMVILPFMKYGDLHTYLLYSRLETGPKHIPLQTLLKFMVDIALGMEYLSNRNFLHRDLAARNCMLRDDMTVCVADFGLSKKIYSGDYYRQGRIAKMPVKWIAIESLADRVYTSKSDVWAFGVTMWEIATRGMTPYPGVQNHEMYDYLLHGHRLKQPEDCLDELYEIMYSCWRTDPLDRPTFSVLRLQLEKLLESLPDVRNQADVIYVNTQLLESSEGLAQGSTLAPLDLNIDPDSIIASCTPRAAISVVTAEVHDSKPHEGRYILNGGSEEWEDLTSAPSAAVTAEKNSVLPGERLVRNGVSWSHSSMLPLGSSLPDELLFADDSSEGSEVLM

Point of comparison: THEVRYVSAGQ [SLCO4A1_Y77], phosphorylation enrichment 0.368. Against it:
- GKMSQYLESMQ [CYB5R3_Y130] — higher, 0.435
- QWRTKYETDTI [MYH7_Y1375_A1379T] — higher, 0.414
- KILAKYLLETS [NAMPT_Y175] — higher, 0.385
- IVRSRYEDLED [VHL_Y185_L184R] — higher, 0.788
- DRLTVYIDRVR [LMNA_Y45_A43T] — lower, 0.312
- CHKRTYKVTGL — higher, 0.375
- ENFSEYQEIAV [HEMGN_Y150] — higher, 0.507
- DRLASYPEKVR [KRT13_Y118_L119P] — lower, 0.34
- AVLSLYASGCT [ACTA2_Y145_R149C] — higher, 0.432
- NLNGKYFKPRA [ANGPTL3_Y417_N418Y_YF] — higher, 0.389
- GDFSRYDEGSG [RECQL5_Y484] — higher, 0.513
- AHEALYLEADL [CENPF_Y1920_E1915A] — higher, 1.03
- EVASVYESYQP [MAVS_Y92_Q93E] — higher, 0.71
- RFVTRSIFNRE [HLA-DQB1_Y62_Y62S_YF] — higher, 0.577
- SVTCTHSPALN [TP53_Y126_Y126H] — higher, 0.4
- PLFSKYWPNHI [GREB1L_Y1560_R1558S_YF] — higher, 1.13
- LLKAKYELLNA [POLR3A_Y714] — higher, 0.418
- SNMPTYSGHFS [GRIN2A_Y1224_T1229S] — higher, 1.15
- TTSQLYDAMPI [PDPK1_Y9_V12M] — higher, 9.19
- GIVEDYRPPFY [ACVRL1_Y421] — higher, 0.406
- QRKRAYVEIEY [MAK16_Y282] — higher, 0.416
- SGLDSYVRSLP [TRAPPC1_Y133_R129G] — higher, 0.402
- VDDEIYYFRKP [PBRM1_Y1289] — higher, 4.89
- PLLEFYWDIFT [CDAN1_Y713_R714W_YF] — lower, 0.284
- PVDVAYRRGYF [PLEC_Y2967] — higher, 0.399
- SDPIVYTLENI [EMR1_Y534_I533V] — higher, 0.546
- KFRREYILSLE [GPC3_Y299_W296R_YF] — higher, 0.455
- EICTQYEAMAS [GFAP_Y242_R239C] — higher, 0.55
- EFTAGYNVKFD [GPX4_Y123_A120T] — higher, 0.445
- SSYDTYHLSRE [KIR3DL2_Y253_I252T] — higher, 0.583
- SIGLGYHKDLQ [NF1_Y1169] — higher, 0.381
- FSCLPYRRLAY [SLC52A2_Y305_G306R] — higher, 0.621

Tested on: c-Abl (mouse)
Experiment: as above

Point of comparison: ENFSEYQEIAV [HEMGN_Y150], phosphorylation enrichment 0.957. Against it:
- GKMSQYLESMQ [CYB5R3_Y130] — lower, 0.548
- QWRTKYETDTI [MYH7_Y1375_A1379T] — lower, 0.798
- KILAKYLLETS [NAMPT_Y175] — lower, 0.571
- IVRSRYEDLED [VHL_Y185_L184R] — higher, 0.968
- DRLTVYIDRVR [LMNA_Y45_A43T] — lower, 0.749
- CHKRTYKVTGL — lower, 0.564
- DRLASYPEKVR [KRT13_Y118_L119P] — lower, 0.41
- AVLSLYASGCT [ACTA2_Y145_R149C] — higher, 0.965
- NLNGKYFKPRA [ANGPTL3_Y417_N418Y_YF] — lower, 0.469
- GDFSRYDEGSG [RECQL5_Y484] — lower, 0.799
- AHEALYLEADL [CENPF_Y1920_E1915A] — higher, 1.09
- EVASVYESYQP [MAVS_Y92_Q93E] — lower, 0.783
- RFVTRSIFNRE [HLA-DQB1_Y62_Y62S_YF] — lower, 0.402
- SVTCTHSPALN [TP53_Y126_Y126H] — lower, 0.818
- PLFSKYWPNHI [GREB1L_Y1560_R1558S_YF] — higher, 1.47
- LLKAKYELLNA [POLR3A_Y714] — lower, 0.544
- SNMPTYSGHFS [GRIN2A_Y1224_T1229S] — lower, 0.684
- TTSQLYDAMPI [PDPK1_Y9_V12M] — lower, 0.706
- GIVEDYRPPFY [ACVRL1_Y421] — lower, 0.735
- QRKRAYVEIEY [MAK16_Y282] — higher, 2.01
- SGLDSYVRSLP [TRAPPC1_Y133_R129G] — lower, 0.426
- VDDEIYYFRKP [PBRM1_Y1289] — higher, 7.44
- PLLEFYWDIFT [CDAN1_Y713_R714W_YF] — lower, 0.828
- PVDVAYRRGYF [PLEC_Y2967] — lower, 0.743
- THEVRYVSAGQ [SLCO4A1_Y77] — lower, 0.485
- SDPIVYTLENI [EMR1_Y534_I533V] — lower, 0.873
- KFRREYILSLE [GPC3_Y299_W296R_YF] — lower, 0.601
- EICTQYEAMAS [GFAP_Y242_R239C] — lower, 0.71
- EFTAGYNVKFD [GPX4_Y123_A120T] — lower, 0.635
- SSYDTYHLSRE [KIR3DL2_Y253_I252T] — lower, 0.657
- SIGLGYHKDLQ [NF1_Y1169] — lower, 0.487
- FSCLPYRRLAY [SLC52A2_Y305_G306R] — higher, 1.22
